Substrate in series [1]: Nc1ccccc1C(=O)C[C@H](N)C(=O)O
Nature of the series: purified protein. The series is classed as biochemical, Homo sapiens. As to conditions: 0-2 mM substrate, 0.10-1.00 uM enzyme.

Substrate in series [2]: Nc1c(O)cccc1C(=O)CC(N)C(=O)O
Nature of the series: purified protein. As to conditions: HsKYNase_66; racemic substrate; in D2O-PBS (H2O value only in Figure 1f).

B1: HsKYNase (human kynureninase) (Homo sapiens) (protein)
chain: MEPSSLELPADTVQRIAAELKCHPTDERVALHLDEEDKLRHFRECFYIPKIQDLPPVDLSLVNKDENAIYFLGNSLGLQPKMVKTYLEEELDKWAKIAAYGHEVGKRPWITGDESIVGLMKDIVGANEKEIALMNALTVNLHLLMLSFFKPTPKRYKILLEAKAFPSDHYAIESQLQLHGLNIEESMRMIKPREGEETLRIEDILEVIEKEGDSIAVILFSGVHFYTGQHFNIPAITKAGQAKGCYVGFDLAHAVGNVELYLHDWGVDFACWCSYKYLNAGAGGIAGAFIHEKHAHTIKPALVGWFGHELSTRFKMDNKLQLIPGVCGFRISNPPILLVCSLHASLEIFKQATMKALRKKSVLLTGYLEYLIKHNYGKDKAATKKPVVNIITPSHVEERGCQLTITFSVPNKDVFQELEKRGVVCDKRNPNGIRVAPVPLYNSFHDVYKFTNLLTSILDSAETKN
As to B1, in the series “purified protein [1]”, the Km – broadly, the concentration of substrate that gives half-maximal velocity – is recorded as 1.57 mM; the kcat (commonly the maximal rate divided by the concentration of active sites) came to 0.18 s⁻¹; the kcat/Km (usually the second-order rate constant that governs catalysis at low substrate concentration) is 110 M⁻¹ s⁻¹.

B2: HsKYNase (human kynureninase) (Homo sapiens; E103Q/F225Y/I331V/I405L/L72N/M189I/N67D/S274G/S408N) (protein)
chain: MEPSSLELPADTVQRIAAELKCHPTDERVALHLDEEDKLRHFRECFYIPKIQDLPPVDLSLVNKDEDAIYFNGNSLGLQPKMVKTYLEEELDKWAKIAAYGHQVGKRPWITGDESIVGLMKDIVGANEKEIALMNALTVNLHLLMLSFFKPTPKRYKILLEAKAFPSDHYAIESQLQLHGLNIEESMRIIKPREGEETLRIEDILEVIEKEGDSIAVILFSGVHYYTGQHFNIPAITKAGQAKGCYVGFDLAHAVGNVELYLHDWGVDFACWCGYKYLNAGAGGIAGAFIHEKHAHTIKPALVGWFGHELSTRFKMDNKLQLIPGVCGFRVSNPPILLVCSLHASLEIFKQATMKALRKKSVLLTGYLEYLIKHNYGKDKAATKKPVVNIITPSHVEERGCQLTLTFNVPNKDVFQELEKRGVVCDKRNPNGIRVAPVPLYNSFHDVYKFTNLLTSILDSAETKN
B2: in “purified protein [1]” (HsKYNase_46), the Km was found to be 0.19 mM, the turnover number (kcat) is 0.58 s⁻¹ and the kcat/Km came to 3100 M⁻¹ s⁻¹.

B3: HsKYNase (human kynureninase) (Homo sapiens; … (protein)
chain: MEPSSLELPADTVQRIAAELKCHPTDERVALHLDEEDKLRHFRECFYIPKIQDLPPVDLSLVNKDEDAIYFNGNSLGLQPKMVKTYLEEELDKWAKIAIYGWFEGDSPWIHYDESIVGLMKDIVGANEKEIVLMNTLTVNLHLLMLSFFKPTPKRYKILLEAKAFPSDHYAIESQLQLHGLNIEESMRIIKPREGEETLRIEDILEVIEKEGDSIAVILFSGIHYYTGQHFNIPAITKAGQAKGCYVGFDLAHAVGNVELYLHDWGVDFACWCGYKYLNSSPGGIAGAFIHEKHAHTIKPALVGWFGHELSTRFKMDNKLQLIPGVCGFRCSTPPILLVCILHASLEIFKQATMKALRKKSVLLTGYLEYLIKHNYGKDKAATKKPVVNIITPSHVEERGCQLTLTFNVPNKDVFQELEKRGVVCDKRNPNGIRVAPVPLYNSFHDVYKFTNLLTSILDSAETKN
In the case of B3, in the series “purified protein [1]” (HsKYNase_66), the Km is on record as 0.027 mM, the kcat amounted to 1.54 s⁻¹ and the kcat/Km was 56000 M⁻¹ s⁻¹. Besides, the Km in “purified protein [2]” turned out to be 1.37 ± 0.2 mM.

B4: HsKYNase (human kynureninase) (Homo sapiens; A136T/A99I/E103F/F225Y/H102W/I110M/I331C/I405L/K106E/L72N/M189I/N333T/N67D/R107S/S274G/S341I/S408N/V104E) (protein)
chain: MEPSSLELPADTVQRIAAELKCHPTDERVALHLDEEDKLRHFRECFYIPKIQDLPPVDLSLVNKDEDAIYFNGNSLGLQPKMVKTYLEEELDKWAKIAIYGWFEGESPWMTGDESIVGLMKDIVGANEKEIALMNTLTVNLHLLMLSFFKPTPKRYKILLEAKAFPSDHYAIESQLQLHGLNIEESMRIIKPREGEETLRIEDILEVIEKEGDSIAVILFSGVHYYTGQHFNIPAITKAGQAKGCYVGFDLAHAVGNVELYLHDWGVDFACWCGYKYLNAGAGGIAGAFIHEKHAHTIKPALVGWFGHELSTRFKMDNKLQLIPGVCGFRCSTPPILLVCILHASLEIFKQATMKALRKKSVLLTGYLEYLIKHNYGKDKAATKKPVVNIITPSHVEERGCQLTLTFNVPNKDVFQELEKRGVVCDKRNPNGIRVAPVPLYNSFHDVYKFTNLLTSILDSAETKN
With B4, in “purified protein [1]” (HsKYNase_64), the Michaelis-Menten constant (Km) came out at 0.036 mM, the kcat worked out at 0.24 s⁻¹ and the kcat/Km worked out at 6700 M⁻¹ s⁻¹.

B5: HsKYNase (human kynureninase) (Homo sapiens; … (protein)
chain: MEPSSLELPADTVQRIAAELKCHPTDERVALHLDEEDKLRHFRECFYIPKIQDLPPVDLSLVNKDEDTIYFNGNSLGLQPKMVKTYLEEELDKWAKIAIYGWFEGDSPWLHYDESIVGLMKDIVGANEKEIALMNTLTVNLHLLMLSFFKPTPKRYKILLEAKAFPSDHYAIESQLQLHGLNIEESMRIIKPREGEETLRIEDILEVIEKEGDSIAVILFSGVHYYTGQHFNIPAITKAGQAKGCYVGFDLAHAVGNVELYLHDWGVDFACWCNYKYLNSSPGGIAGAFIHEKHAHTIKPALVGWWGHELSTRFKMDNKLQLIPGVCGFRCSTPPILLVCILHASLEIFKQATMKALRKKSVLLTGYLEYLIKHNYGKDKAATKKPVVNIITPSHVEERGCQLTLTFNVPNKDVFQELEKRGVVCDKRNPNGIRVAPVPLYNSFHDVYKFTNLLTSILDSAETKN
In the case of B5, in “purified protein [1]” (HsKYNase_95), the Km came to 0.016 mM, the kcat came out at 0.85 s⁻¹ and the specificity constant (kcat/Km) was 55000 M⁻¹ s⁻¹.

The values are drawn from PMC9717613.
